Test results reported in article PMC5142293, “Characterization of spermidine hydroxycinnamoyl transferases from eggplant (Solanum melongena L.) and its wild relative Solanum richardii Dunal” (Horticulture Research, 2016).

What was measured:
Assay in all cases: spectrophotometric acylation assay, microplate (absorbance loss of CoA ester)
Details in all cases: 2.5 mM polyamine acceptor (text b49: spermidine; table title and b21: spermine), pH 9.0, 30 °C, Tris-HCl, 10 mM EDTA
[1] = substrate: COc1cc(/C=C/C(=O)SCCNC(=O)CCNC(=O)[C@H](O)C(C)(C)COP(=O)(O)OP(=O)(O)OC[C@H]2O[C@@H](n3cnc4c(N)ncnc43)[C@H](O)[C@@H]2OP(=O)(O)O)ccc1O; format: biochemical, Solanum virginianum
Text: (§1) spectrophotometric acylation assay, microplate (absorbance loss of CoA ester) on SmSHT

[2] = substrate: CC(C)(COP(=O)(O)OP(=O)(O)OC[C@H]1O[C@@H](n2cnc3c(N)ncnc32)[C@H](O)[C@@H]1OP(=O)(O)O)[C@@H](O)C(=O)NCCC(=O)NCCSC(=O)/C=C/c1ccc(O)c(O)c1; format: biochemical, Solanum virginianum
Text: as §1

[3] = substrate: CC(C)(COP(=O)(O)OP(=O)(O)OC[C@H]1O[C@@H](n2cnc3c(N)ncnc32)[C@H](O)[C@@H]1OP(=O)(O)O)[C@@H](O)C(=O)NCCC(=O)NCCSC(=O)/C=C/c1ccc(O)cc1; format: biochemical, Solanum virginianum
Text: as §1

[4] = substrate: COc1cc(/C=C/C(=O)SCCNC(=O)CCNC(=O)[C@H](O)C(C)(C)COP(=O)(O)OP(=O)(O)OC[C@H]2O[C@@H](n3cnc4c(N)ncnc43)[C@H](O)[C@@H]2OP(=O)(O)O)ccc1O; format: biochemical, Solanum richardii
Text: (§2) spectrophotometric acylation assay, microplate (absorbance loss of CoA ester) on SrSHT

[5] = substrate: CC(C)(COP(=O)(O)OP(=O)(O)OC[C@H]1O[C@@H](n2cnc3c(N)ncnc32)[C@H](O)[C@@H]1OP(=O)(O)O)[C@@H](O)C(=O)NCCC(=O)NCCSC(=O)/C=C/c1ccc(O)c(O)c1; format: biochemical, Solanum richardii
Text: as §2

[6] = substrate: CC(C)(COP(=O)(O)OP(=O)(O)OC[C@H]1O[C@@H](n2cnc3c(N)ncnc32)[C@H](O)[C@@H]1OP(=O)(O)O)[C@@H](O)C(=O)NCCC(=O)NCCSC(=O)/C=C/c1ccc(O)cc1; format: biochemical, Solanum richardii
Text: as §2

Row | Protein | Km [1] [µM] | kcat [1] [s⁻¹] | kcat/Km [1] [M⁻¹ s⁻¹] | Km [2] [µM] | kcat [2] [s⁻¹] | kcat/Km [2] [M⁻¹ s⁻¹] | Km [3] [µM] | kcat [3] [s⁻¹] | kcat/Km [3] [M⁻¹ s⁻¹] | Km [4] [µM] | kcat [4] [s⁻¹] | kcat/Km [4] [M⁻¹ s⁻¹] | Km [5] [µM] | kcat [5] [s⁻¹] | kcat/Km [5] [M⁻¹ s⁻¹] | Km [6] [µM] | kcat [6] [s⁻¹] | kcat/Km [6] [M⁻¹ s⁻¹]
1 | SmSHT (Solanum virginianum) (protein, full-length ORF, 453 residues, pET-32a(+) N-terminal His-tag (73 kDa with tag, 51 kDa predicted), E. coli, Ni-NTA purified) MKVILKNHWVVKPAAPTWTGTVSLSEFDQTFAVTHVPTIYYYKFVQDFITSTDEIIKTLKTSLSEALVHFYPLAGRLRWISGSRLELECDASGVVLTEAETDAKLDDLDSFLLSPNYNSLFPRVDYTIPIDELPLLFVQLTKFQCGGIALSFAISHAVVDGHSALYFFSEWARLSRGEPLMFAPFHDRKVLRAGEPAIACPTFEHLQFNTPPLLIGKSSTENEKKKETKGSMLKLTKLQVEMLREKANQGRNLEDSRERSYTRYEVVTAHIWRCACKARGHKFEQPTNLCICVDIRRRMDPPLPSSYFGNAIVDVIATGASGDIVLSPLECAAKRVREAIKMVTSDYANSTINFLKKEEDLSKYQDIHAFRNKEGPFYGNPNLGVISWISLPVLGLDFGWGKEFHMSPGIHEYDGDCVILPDNEGDGSLTVAIVLQEAHVDAFKKFFYEDIEC | 27.3 ± 5.6 | 3.87 ± 0.205 | 142000 ± 8330 | 58.3 ± 1.7 | 7.36 ± 0.185 | 127000 ± 3330 | 29.6 ± 5.8 | 3.02 ± 0.122 | 102000 ± 3330 | – | – | – | – | – | – | – | – | –
2 | SrSHT (Solanum richardii) (protein, full-length ORF, 453 residues, pET-32a(+) N-terminal His-tag (73 kDa with tag, 51 kDa predicted), E. coli, Ni-NTA purified; natural ortholog differing from SmSHT by C200S, P286S, R297K, L326S, K402E) MKVILKNHWVVKPAAPTWTGTVSLSEFDQTFAVTHVPTIYYYKFVQDFITSTDEIIKTLKTSLSEALVHFYPLAGRLRWISGSRLELECDASGVVLTEAETDAKLDDLDSFLLSPNYNSLFPRVDYTIPIDELPLLFVQLTKFQCGGIALSFAISHAVVDGHSALYFFSEWARLSRGEPLMFAPFHDRKVLRAGEPAIASPTFEHLQFNTPPLLIGKSSTENEKKKETKGSMLKLTKLQVEMLREKANQGRNLEDSRERSYTRYEVVTAHIWRCACKARGHKFEQSTNLCICVDIRKRMDPPLPSSYFGNAIVDVIATGASGDIVSSPLECAAKRVREAIKMVTSDYANSTINFLKKEEDLSKYQDIHAFRNKEGPFYGNPNLGVISWISLPVLGLDFGWGEEFHMSPGIHEYDGDCVILPDNEGDGSLTVAIVLQEAHVDAFKKFFYEDIEC | – | – | – | – | – | – | – | – | – | 51.3 ± 10.6 | 6.88 ± 1 | 133000 ± 20000 | 67.1 ± 7.6 | 10.1 ± 0.483 | 150000 ± 6670 | 38.4 ± 3.3 | 4.33 ± 0.243 | 113000 ± 6670
